{"source": "patent US20050164186", "about": "“Alteration of restriction endonuclease specificity by genetic selection” (published 2005)", "binders": {"B1": {"name": "AGATCT site, 60 bp substrate (dsDNA)", "DNA 1": "AGATCT", "DNA 2": "AGATCT"}}, "biological_target": "T1, BstYI NN1 (K133N/S172N) (Bacillus stearothermophilus, K133N,S172N)", "T1 chain": "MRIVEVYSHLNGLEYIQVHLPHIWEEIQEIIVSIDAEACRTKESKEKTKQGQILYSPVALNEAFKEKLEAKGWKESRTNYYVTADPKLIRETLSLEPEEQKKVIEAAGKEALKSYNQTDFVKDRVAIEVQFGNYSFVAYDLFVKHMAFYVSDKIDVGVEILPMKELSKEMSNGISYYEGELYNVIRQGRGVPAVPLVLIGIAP", "assay": "cleavage_in_vitro; 60 C", "settings": "label: radiolabel"}
{"binder": "B1", "values": [{"measurement": "binding signal", "result": "7 fold preference over AGATCC/GGATCT"}]}
